Reference: the supplement of paper PMC9112550, “Optimization of the antimicrobial peptide Bac7 by deep mutational scanning” (BMC Biology, 2022)

These sequences were tested on Escherichia coli TOP10 (assay: shrunken log2 fold change of peptide-encoding DNA abundance (4.5 h post-induction vs induction); higher = less antimicrobial activity (less host growth inhibition)). Details: time post-induction: 4.5 h; library: site-saturation at positions 5, 18, 19, 20.
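Note: peptides expressed intracellularly from a pBAD plasmid library in pooled LB shake-flask culture, induced with 0.3% L-arabinose, DNA abundance read by NGS, three biological replicates, DESeq2 with apeglm shrinkage.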

Sequence	shrunken log2 fold change
RRIRYRPPRLPRPRPRPLSNPRP	-0.233
RRIRIRPPRLPRPRPRPRGRPRP	0.229
RRIRYRPPRLPRPRPRPFYPPRP	-0.747
RRIRSRPPRLPRPRPRPQKPPRP	-0.0986
RRIRHRPPRLPRPRPRPFTWPRP	-0.408
RRIRKRPPRLPRPRPRPFVCPRP	0.0717
RRIRWRPPRLPRPRPRPIYMPRP	-0.118
RRIRHRPPRLPRPRPRPFCVPRP	-0.312
RRIRIRPPRLPRPRPRPDECPRP	0.0238
RRIRPRPPRLPRPRPRPNRHPRP	-0.0624
RRIRMRPPRLPRPRPRPLKAPRP	0.541
RRIRDRPPRLPRPRPRPYRWPRP	-0.146
RRIRKRPPRLPRPRPRPRKDPRP	0.222
RRIRVRPPRLPRPRPRPIQEPRP	-0.169
RRIRRRPPRLPRPRPRPSDSPRP	0.141
RRIRIRPPRLPRPRPRPMVEPRP	3.19
RRIRHRPPRLPRPRPRPHEFPRP	0.0248
RRIRVRPPRLPRPRPRPDQQPRP	0.021
RRIRCRPPRLPRPRPRPKHDPRP	-0.0567
RRIRSRPPRLPRPRPRPEPLPRP	0.0528
RRIRRRPPRLPRPRPRPNLFPRP	0.177
RRIRTRPPRLPRPRPRPFCKPRP	-0.132
RRIRARPPRLPRPRPRPRAYPRP	0.178
RRIRKRPPRLPRPRPRPLIEPRP	0.105
RRIRARPPRLPRPRPRPRDIPRP	0.0507

Sequence	shrunken log2 fold change
RRIRCRPPRLPRPRPRPAIQPRP	-0.0767
RRIRSRPPRLPRPRPRPATIPRP	0.115
RRIRVRPPRLPRPRPRPIKDPRP	0.0334
RRIRTRPPRLPRPRPRPYPTPRP	-0.374
RRIRLRPPRLPRPRPRPICYPRP	-0.284
RRIRKRPPRLPRPRPRPVLMPRP	0.471
RRIRPRPPRLPRPRPRPQWNPRP	0.36
RRIRIRPPRLPRPRPRPKICPRP	-0.883
RRIRCRPPRLPRPRPRPKLCPRP	0.0418
RRIRWRPPRLPRPRPRPYGYPRP	-0.345
RRIRMRPPRLPRPRPRPLYHPRP	-0.0416
RRIRGRPPRLPRPRPRPTWTPRP	1.18
RRIRNRPPRLPRPRPRPYCLPRP	-0.228
RRIRFRPPRLPRPRPRPCRVPRP	-0.129
RRIRRRPPRLPRPRPRPRVNPRP	0.398
RRIRVRPPRLPRPRPRPDRMPRP	-0.268
RRIRMRPPRLPRPRPRPAKMPRP	0.134
RRIRRRPPRLPRPRPRPYMYPRP	-0.74
RRIRMRPPRLPRPRPRPWFIPRP	-0.183
RRIRERPPRLPRPRPRPEWFPRP	0.0631
RRIRCRPPRLPRPRPRPQEIPRP	-0.0405
RRIRTRPPRLPRPRPRPCSDPRP	-0.104
RRIRNRPPRLPRPRPRPELQPRP	-0.0211
RRIRRRPPRLPRPRPRPKKIPRP	0.106
RRIRVRPPRLPRPRPRPKLAPRP	0.274

Sequence	shrunken log2 fold change
RRIRGRPPRLPRPRPRPSIEPRP	0.36
RRIRWRPPRLPRPRPRPPLGPRP	0.416
RRIRCRPPRLPRPRPRPSMWPRP	-0.648
RRIRARPPRLPRPRPRPQMYPRP	-0.3
RRIRDRPPRLPRPRPRPKHGPRP	0.0517
RRIRPRPPRLPRPRPRPEDWPRP	0.391
RRIRMRPPRLPRPRPRPSNCPRP	-0.376
RRIRNRPPRLPRPRPRPQVEPRP	0.0172
RRIRKRPPRLPRPRPRPGALPRP	0.656
RRIRCRPPRLPRPRPRPTLCPRP	-0.0107
RRIRQRPPRLPRPRPRPCIDPRP	-0.424
RRIRCRPPRLPRPRPRPATNPRP	0.213
RRIRKRPPRLPRPRPRPVPGPRP	0.515
RRIRPRPPRLPRPRPRPEKAPRP	0.385
RRIRCRPPRLPRPRPRPHKEPRP	-0.334
RRIRKRPPRLPRPRPRPLHRPRP	0.36
RRIRYRPPRLPRPRPRPDIVPRP	-0.295
RRIRMRPPRLPRPRPRPTTSPRP	0.499
RRIRCRPPRLPRPRPRPPNQPRP	0.107
RRIRFRPPRLPRPRPRPWRFPRP	0.22
RRIRRRPPRLPRPRPRPSYEPRP	-0.33
RRIRWRPPRLPRPRPRPIMQPRP	0.0828
RRIRVRPPRLPRPRPRPYMCPRP	-0.274
RRIRRRPPRLPRPRPRPIKHPRP	0.0383
RRIRRRPPRLPRPRPRPTSFPRP	0.264
